Experimental data published in US20190183138.

What was measured:
bovine β-casein = target: T1, bovine β-casein (UniProt P02666)
T1 sequence: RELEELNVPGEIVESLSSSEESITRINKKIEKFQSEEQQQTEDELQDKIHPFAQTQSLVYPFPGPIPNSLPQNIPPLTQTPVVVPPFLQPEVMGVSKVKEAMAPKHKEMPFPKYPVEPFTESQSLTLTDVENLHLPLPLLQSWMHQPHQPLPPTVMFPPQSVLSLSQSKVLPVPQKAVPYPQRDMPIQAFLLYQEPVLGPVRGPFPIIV

bovine κ-casein = bovine κ-casein (UniProt P02668)
bovine κ-casein, sequence (P02668 22-190): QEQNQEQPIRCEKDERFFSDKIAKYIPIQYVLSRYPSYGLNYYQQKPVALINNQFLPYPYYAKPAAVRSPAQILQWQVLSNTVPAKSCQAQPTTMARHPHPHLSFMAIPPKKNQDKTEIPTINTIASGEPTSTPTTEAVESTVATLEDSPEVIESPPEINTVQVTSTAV

Substance	hydrolysis of isolated casein as a function of time (SDS-PAGE) (bovine α-casein)	hydrolysis of isolated casein as a function of time (SDS-PAGE) (bovine β-casein)	Km (bovine κ-casein) [mg/mL]	hydrolysis of isolated casein as a function of time (SDS-PAGE) (bovine κ-casein)	kcat (min) (bovine κ-casein) [s⁻¹]	kcat./Km [mL/(mg · min)] (mL/(mg · min)) (bovine κ-casein)
Cynanchum otophyllum Schneid. protease QC (identified as cysteine protease B of Calotropis R. Br.)	α-casein was only partially hydrolyzed	The QC also exhibited a higher rate of hydrolysis than QA for β-casein and κ-casein	1.708 ± 0.014	Most of the κ-casein was hydrolyzed by QC after 30 min of incubation	1.39	49 ± 1.93
Cynanchum otophyllum Schneid. protease QA (identified as asclepain of Asclepias Linn.)	α-casein was only partially hydrolyzed	β-Casein and κ-casein were completely hydrolyzed after 4 h of incubation	0.397 ± 0.002	hydrolysis by QA required almost 4 h	1.66	251 ± 6.11
